Source: patent US20120141527A1
* marks the point of attachment. FITC = O=C1OC2(c3ccc(O)cc3Oc3cc(O)ccc32)c2ccc(NC(=S)*)cc21; βAla = NCCC(=O)O

Target: doubly-mutant HR1 peptides
Test: native PAGE complex assembly assay, densitometry of fluorescence scans

B1: FITC-SAH-gp41(626-662)(A, F) (peptide)
peptide: {FITC-βAla}-LTWAEWDAEINNYTSLIHSLIEESQNQAEKNAQELLE-NH2
modifications: staple (positions not given here); also: two hydrocarbon staples from S5 residues, positions not given here
Work on B1 yielded a fold enhancement in binding activity compared to FITC-T649v of less than 2 fold.
